Laboratory results taken from the supplement of paper PMC9112550, “Optimization of the antimicrobial peptide Bac7 by deep mutational scanning” (BMC Biology, 2022).

System: Escherichia coli TOP10
Assay: shrunken log2 fold change of peptide-encoding DNA abundance (4.5 h post-induction vs induction); higher = less antimicrobial activity (less host growth inhibition)
Conditions: time post-induction: 4.5 h; library: site-saturation at positions 5, 18, 19, 20
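Note: peptides expressed intracellularly from a pBAD plasmid library in pooled LB shake-flask culture, induced with 0.3% L-arabinose, DNA abundance read by NGS, three biological replicates, DESeq2 with apeglm shrinkage.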

Sequence	shrunken log2 fold change
RRIRKRPPRLPRPRPRPIHPPRP	0.0728
RRIRKRPPRLPRPRPRPNMWPRP	-0.109
RRIRKRPPRLPRPRPRPGHTPRP	0.272
RRIRIRPPRLPRPRPRPLIFPRP	-0.562
RRIRIRPPRLPRPRPRPAGFPRP	0.0153
RRIRHRPPRLPRPRPRPQNIPRP	-0.269
RRIRCRPPRLPRPRPRPIEIPRP	-0.223
RRIRSRPPRLPRPRPRPLNLPRP	-0.539
RRIRKRPPRLPRPRPRPLLVPRP	0.372
RRIRARPPRLPRPRPRPQNHPRP	-0.446
RRIRPRPPRLPRPRPRPIRAPRP	-0.106
RRIRDRPPRLPRPRPRPGPLPRP	0.0434
RRIRHRPPRLPRPRPRPWIFPRP	-0.332
RRIRERPPRLPRPRPRPHSPPRP	-0.372
RRIRNRPPRLPRPRPRPYHQPRP	-0.308
RRIRVRPPRLPRPRPRPLGNPRP	-0.424
RRIRNRPPRLPRPRPRPFFHPRP	-0.446
RRIRTRPPRLPRPRPRPLYAPRP	-0.274
RRIRVRPPRLPRPRPRPQTTPRP	0.213
RRIRMRPPRLPRPRPRPLMCPRP	-0.249
RRIRDRPPRLPRPRPRPAWAPRP	0.713
RRIRHRPPRLPRPRPRPKIVPRP	0.00911
RRIRGRPPRLPRPRPRPRSNPRP	0.363
RRIRFRPPRLPRPRPRPPWRPRP	1.68
RRIRYRPPRLPRPRPRPGHPPRP	-0.0687

Sequence	shrunken log2 fold change
RRIRWRPPRLPRPRPRPEIIPRP	0.231
RRIRHRPPRLPRPRPRPPVSPRP	-0.0862
RRIRNRPPRLPRPRPRPTEEPRP	-0.00968
RRIRWRPPRLPRPRPRPYNQPRP	-0.807
RRIRKRPPRLPRPRPRPKAHPRP	0.242
RRIRCRPPRLPRPRPRPNNPPRP	-0.681
RRIRPRPPRLPRPRPRPVMCPRP	0.218
RRIRDRPPRLPRPRPRPKLCPRP	-0.0785
RRIRKRPPRLPRPRPRPISAPRP	0.164
RRIRKRPPRLPRPRPRPDINPRP	0.193
RRIRSRPPRLPRPRPRPTCIPRP	0.0869
RRIRHRPPRLPRPRPRPNGEPRP	0.164
RRIRQRPPRLPRPRPRPPVCPRP	-0.0828
RRIRRRPPRLPRPRPRPLPFPRP	-0.344
RRIRHRPPRLPRPRPRPAQTPRP	-0.1
RRIRPRPPRLPRPRPRPFMAPRP	-0.305
RRIRGRPPRLPRPRPRPQMFPRP	0.612
RRIRDRPPRLPRPRPRPEKSPRP	-0.00264
RRIRSRPPRLPRPRPRPVFYPRP	-0.266
RRIRIRPPRLPRPRPRPEVEPRP	-0.0136
RRIRPRPPRLPRPRPRPGQPPRP	-0.0656
RRIRWRPPRLPRPRPRPSYYPRP	-0.292
RRIRDRPPRLPRPRPRPMYKPRP	-0.363
RRIRPRPPRLPRPRPRPSRPPRP	0.133
RRIRHRPPRLPRPRPRPQQVPRP	-0.0214

Sequence	shrunken log2 fold change
RRIRFRPPRLPRPRPRPVIMPRP	-0.297
RRIRIRPPRLPRPRPRPPFSPRP	-0.245
RRIRERPPRLPRPRPRPRQEPRP	0.315
RRIRDRPPRLPRPRPRPLKRPRP	-0.0492
RRIRIRPPRLPRPRPRPENQPRP	-0.473
RRIRGRPPRLPRPRPRPMCTPRP	2.37
RRIRERPPRLPRPRPRPCWYPRP	-0.0102
RRIRQRPPRLPRPRPRPTKCPRP	0.0325
RRIRTRPPRLPRPRPRPHVFPRP	-0.119
RRIRMRPPRLPRPRPRPSWYPRP	-0.506
RRIRIRPPRLPRPRPRPLYGPRP	-0.702
RRIRKRPPRLPRPRPRPIDFPRP	0.131
RRIRDRPPRLPRPRPRPHLNPRP	-0.152
RRIRWRPPRLPRPRPRPEMGPRP	0.271
RRIRFRPPRLPRPRPRPRHIPRP	-0.439
RRIRHRPPRLPRPRPRPCGAPRP	0.0817
RRIRIRPPRLPRPRPRPGHMPRP	0.0184
RRIRFRPPRLPRPRPRPWQWPRP	0.00967
RRIRDRPPRLPRPRPRPKLTPRP	-0.0121
RRIRLRPPRLPRPRPRPFNCPRP	0.0515
RRIRRRPPRLPRPRPRPRWIPRP	0.356
RRIRGRPPRLPRPRPRPVQFPRP	0.535
RRIRNRPPRLPRPRPRPFFVPRP	0.126
RRIRRRPPRLPRPRPRPAQRPRP	0.414
RRIRSRPPRLPRPRPRPKSLPRP	-0.0747

Sequence	shrunken log2 fold change
RRIRHRPPRLPRPRPRPTRKPRP	0.00421
RRIRLRPPRLPRPRPRPDYMPRP	-0.548
RRIRQRPPRLPRPRPRPLWNPRP	-0.245
RRIRARPPRLPRPRPRPMYDPRP	0.15
RRIRLRPPRLPRPRPRPGDPPRP	0.251
RRIRFRPPRLPRPRPRPQCRPRP	-0.218
RRIRGRPPRLPRPRPRPADNPRP	-0.0713
RRIRQRPPRLPRPRPRPATNPRP	-0.0811
RRIRTRPPRLPRPRPRPTCNPRP	-0.533
RRIRIRPPRLPRPRPRPIIAPRP	-0.389
RRIRVRPPRLPRPRPRPQKLPRP	-0.0565
RRIRHRPPRLPRPRPRPECQPRP	-0.0633
RRIRQRPPRLPRPRPRPGMKPRP	-0.0822
RRIRSRPPRLPRPRPRPNHDPRP	-0.69
RRIRNRPPRLPRPRPRPGKPPRP	-0.117
RRIRFRPPRLPRPRPRPTDAPRP	0.00734
RRIRGRPPRLPRPRPRPCNTPRP	0.00375
RRIRARPPRLPRPRPRPPKKPRP	0.342
RRIRCRPPRLPRPRPRPWMTPRP	-0.188
RRIRFRPPRLPRPRPRPYESPRP	0.0128
RRIRRRPPRLPRPRPRPDMCPRP	0.019
RRIRKRPPRLPRPRPRPTGHPRP	0.348
RRIRYRPPRLPRPRPRPYHFPRP	-0.535
RRIRVRPPRLPRPRPRPRWQPRP	0.0341
RRIRPRPPRLPRPRPRPWNVPRP	-0.052

Sequence	shrunken log2 fold change
RRIRKRPPRLPRPRPRPVLIPRP	-0.141
RRIRYRPPRLPRPRPRPNFAPRP	0.137
RRIRGRPPRLPRPRPRPCQKPRP	0.0649
RRIRSRPPRLPRPRPRPWHIPRP	-0.0156
RRIRERPPRLPRPRPRPHVQPRP	-0.434
RRIRVRPPRLPRPRPRPDWCPRP	0.0302
RRIRNRPPRLPRPRPRPVAPPRP	0.153
RRIRDRPPRLPRPRPRPGIKPRP	-0.165
RRIRFRPPRLPRPRPRPWLTPRP	-0.0554
RRIRERPPRLPRPRPRPRIEPRP	-0.0877
RRIRTRPPRLPRPRPRPVTCPRP	-0.0382
RRIRIRPPRLPRPRPRPGVYPRP	-0.39
RRIRNRPPRLPRPRPRPMTIPRP	-0.35
RRIRYRPPRLPRPRPRPEMLPRP	-0.0664
RRIRYRPPRLPRPRPRPFWHPRP	-0.556
RRIRPRPPRLPRPRPRPFWQPRP	0.00477
RRIRWRPPRLPRPRPRPEPPPRP	0.977
RRIRERPPRLPRPRPRPDARPRP	-0.0768
RRIRTRPPRLPRPRPRPQRGPRP	0.31
RRIRNRPPRLPRPRPRPDDAPRP	0.147
RRIRIRPPRLPRPRPRPLEMPRP	-0.373
RRIRSRPPRLPRPRPRPAIFPRP	0.0447
RRIRSRPPRLPRPRPRPKLWPRP	0.564
RRIRMRPPRLPRPRPRPELRPRP	2.02
RRIRPRPPRLPRPRPRPNVQPRP	0.0803
